Assay results: patent US20190367961A1, “MOGROL GLYCOSYLTRANSFERASE AND GENE ENCODING SAME” (SUNTORY HOLDINGS LIMITED, priority 2014, published 2019)

Test: glucose transfer (glycosylation) activity for mogrol, product analysed by LC-IT-TOF-MS
Format: biochemical
Conditions: same enzyme conditions (0.2 mM mogrol, 2 mM UDP-glucose, 30° C., 3 hours)
Procedure: Purification was carried out using the HisTag of the recombinant protein according to an ordinary method, and glucose transfer activity for mogrol prepared by hydrolyzing a Siraitia grosvenorii extract (Takemoto, T. et al. (1983) YAKUGAKU ZASSHI 103(11), 1167-1173) was evaluated. The enzyme reaction composition was 0.2 mM mogrol as a glucose acceptor, 2 mM UDP-glucose as a glucose donor, and 50 mM calcium phosphate buffer (pH 7.5); an enzyme solution was added thereto, which was then reacted at 30° C. for 3 hours; and the product was analyzed using LC-IT-TOF-MS (Shimadzu Corporation).
Stevia-derived UGT85C2 and UGT73E1 were expressed in the same manner as in the above method. The product amount was measured under the above enzyme conditions to determine relative activity by dividing it by the expressed protein amount. As a result, the relative activities of stevia-derived UGT85C2 and UGT73E1 when the activity of SgUGT74-943 was set to 1 were 0.35 and 0.22, respectively. The glycosylation activity of Siraitia grosvenorii-derived SgUGT74-943 was confirmed to be nearly 3 times higher than those of stevia-derived UGT85C2 and UGT73E1 (FIG. 4).

Molecule	relative activity (product amount divided by expressed protein amount) when the activity of SgUGT74-943 was set to 1
UGT73E1: steviol glycosyltransferase derived from stevia, known to glycosylate mogrol (protein, UniProt Q6VAA9 1-495, looked up) UDP-glycosyltransferase 73E1: MSPKMVAPPTNLHFVLFPLMAQGHLVPMVDIARILAQRGATVTIITTPYHANRVRPVISRAIATNLKIQLLELQLRSTEAGLPEGCESFDQLPSFEYWKNISTAIDLLQQPAEDLLRELSPPPDCIISDFLFPWTTDVARRLNIPRLVFNGPGCFYLLCIHVAITSNILGENEPVSSNTERVVLPGLPDRIEVTKLQIVGSSRPANVDEMGSWLRAVEAEKASFGIVVNTFEELEPEYVEEYKTVKDKKMWCIGPVSLCNKTGPDLAERGNKAAITEHNCLKWLDERKLGSVLYVCLGSLARISAAQAIELGLGLESINRPFIWCVRNETDELKTWFLDGFEERVRDRGLIVHGWAPQVLILSHPTIGGFLTHCGWNSTIESITAGVPMITWPFFADQFLNEAFIVEVLKIGVRIGVERACLFGEEDKVGVLVKKEDVKKAVECLMDEDEDGDQRRKRVIELAKMAKIAMAEGGSSYENVSSLIRDVTETVRAPH	0.22
UGT85C2: steviol glycosyltransferase derived from stevia, known to glycosylate mogrol (protein, UniProt Q6VAB0 1-481, looked up) UDP-glycosyltransferase 85C2: MDAMATTEKKPHVIFIPFPAQSHIKAMLKLAQLLHHKGLQITFVNTDFIHNQFLESSGPHCLDGAPGFRFETIPDGVSHSPEASIPIRESLLRSIETNFLDRFIDLVTKLPDPPTCIISDGFLSVFTIDAAKKLGIPVMMYWTLAACGFMGFYHIHSLIEKGFAPLKDASYLTNGYLDTVIDWVPGMEGIRLKDFPLDWSTDLNDKVLMFTTEAPQRSHKVSHHIFHTFDELEPSIIKTLSLRYNHIYTIGPLQLLLDQIPEEKKQTGITSLHGYSLVKEEPECFQWLQSKEPNSVVYVNFGSTTVMSLEDMTEFGWGLANSNHYFLWIIRSNLVIGENAVLPPELEEHIKKRGFIASWCSQEKVLKHPSVGGFLTHCGWGSTIESLSAGVPMICWPYSWDQLTNCRYICKEWEVGLEMGTKVKRDEVKRLVQELMGEGGHKMRNKAKDWKEKARIAIAPNGSSSLNIDKMVKEITVLARN	0.35
